Data published in US20190055314A1 (ADAGENE, published 2019).

T1: full-length monkey CD137 on the cell surface (cynomolgus monkey, UniProt Q07011 24-179 (human entry))
T1 chain: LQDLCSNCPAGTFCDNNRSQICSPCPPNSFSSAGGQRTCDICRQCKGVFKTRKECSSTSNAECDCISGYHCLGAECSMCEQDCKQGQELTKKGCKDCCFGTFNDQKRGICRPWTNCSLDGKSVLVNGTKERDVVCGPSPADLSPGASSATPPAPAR

T2: Hu_CRD3 (human, limits assumed)
T2 construct: also called human CD137 CRD3
T2 chain: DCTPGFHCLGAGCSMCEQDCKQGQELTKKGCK

T3: Hu_CRD4 (human, UniProt Q07011 119-159, limits assumed)
T3 construct: also called human CD137 CRD4
T3 chain: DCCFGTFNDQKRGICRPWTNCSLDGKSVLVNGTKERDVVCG

T4: full-length mouse CD137 on the cell surface (mouse, UniProt P20334 24-178)
T4 sequence: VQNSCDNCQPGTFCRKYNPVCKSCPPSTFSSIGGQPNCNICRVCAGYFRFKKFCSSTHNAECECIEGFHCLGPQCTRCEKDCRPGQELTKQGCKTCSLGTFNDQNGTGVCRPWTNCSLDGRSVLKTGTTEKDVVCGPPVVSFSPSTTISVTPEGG

T5: Hu_FSS53AAA (human, UniProt Q07011 18-255)
T5 construct: On HEK293F
T5 chain: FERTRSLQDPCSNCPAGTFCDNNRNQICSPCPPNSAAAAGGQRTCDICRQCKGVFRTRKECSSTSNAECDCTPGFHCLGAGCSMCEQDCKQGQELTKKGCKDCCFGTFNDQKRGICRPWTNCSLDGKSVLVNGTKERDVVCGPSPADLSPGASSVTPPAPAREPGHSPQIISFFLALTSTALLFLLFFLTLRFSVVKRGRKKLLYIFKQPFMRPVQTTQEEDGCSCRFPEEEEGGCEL


How the values were obtained:
[1] = biological target: T6, human CD137-His6 (Sino Biological #10041-H08H) (human, UniProt Q07011 24-186); assay: SPR Biacore, IgG
T6 construct: Bought; also called human CD137 protein; not shown: His6 tag

[2] = biological target: T7, full-length human CD137 on the cell surface (human, UniProt Q07011 18-255); assay: flow cytometry, HEK293F
T7 construct: also called Human WT

[3] = biological target: T1, full-length monkey CD137 on the cell …; assay: flow cytometry, HEK293F
Hu_GQ109AA = biological target: T8, Hu_GQ109AA (human, UniProt Q07011 18-255); assay: flow cytometry, HEK293F
T8 construct: On HEK293F

Hu_EL111AA = biological target: T9, Hu_EL111AA (human, UniProt Q07011 18-255); assay: flow cytometry, HEK293F
T9 construct: On HEK293F

Hu_TN137AA = biological target: T10, Hu_TN137AA (human, UniProt Q07011 18-255); assay: flow cytometry, HEK293F
T10 construct: On HEK293F

[4] = biological target: T7, full-length human CD137 on the cell …; assay: cell-based or functional assay
[5] = biological target: T1, full-length monkey CD137 on the cell …; assay: cell-based or functional assay
Hu_CRD3 = biological target: T2, Hu_CRD3; assay: flow cytometry, yeast display [Cont.]
Hu_CRD4 = biological target: T3, Hu_CRD4; assay: flow cytometry, yeast display [Cont.]
Hu_CRD1-CRD2 = biological target: T11, Hu_CRD1-CRD2 (human, UniProt Q07011 24-86, limits assumed); assay: flow cytometry, yeast display [Cont.]
T11 construct: also called two CRD units (CRD1-CRD2) of human CD137

Hu_CRD2-CRD3 = biological target: T12, Hu_CRD2-CRD3 (human, UniProt Q07011 46-118, limits assumed); assay: flow cytometry, yeast display [Cont.]
T12 construct: also called two CRD units (CRD2-CRD3) of human CD137

Hu_CRD1-CRD2-CRD3 = biological target: T13, Hu_CRD1-CRD2-CRD3 (human, UniProt Q07011 24-118, limits assumed); assay: flow cytometry, yeast display [Cont.]
T13 construct: also called three CRD units (CRD1-CRD2-CRD3) of human CD137

Hu_CRD3-CRD4 = biological target: T14, Hu_CRD3-CRD4 (human, UniProt Q07011 87-159, limits assumed); assay: flow cytometry, yeast display [Cont.]
T14 construct: also called two CRD units (CRD3-CRD4) of human CD137

Hu_CRD2-CRD3-CRD4 = biological target: T15, Hu_CRD2-CRD3-CRD4 (human, UniProt Q07011 46-159, limits assumed); assay: flow cytometry, yeast display [Cont.]
T15 construct: also called three CRD units (CRD2-CRD3-CRD4) of human CD137

[6] = biological target: T7, full-length human CD137 on the cell …; assay: flow cytometry, HEK293F cells expressing CD137 or mutant [Cont.]
[7] = biological target: T4, full-length mouse CD137 on the cell …; assay: as above
Hu_FSS53AAA = biological target: T5, Hu_FSS53AAA; assay: as above
Hu_FH92AA = biological target: T16, Hu_FH92AA (human, UniProt Q07011 18-255); assay: as above
T16 construct: On HEK293F

Hu_FN125AA = biological target: T17, Hu_FN125AA (human, UniProt Q07011 18-255); assay: as above
T17 construct: On HEK293F

Hu_PW135AA = biological target: T18, Hu_PW135AA (human, UniProt Q07011 18-255); assay: as above
T18 construct: On HEK293F

Hu_GT150AA = biological target: T19, Hu_GT150AA (human, UniProt Q07011 18-255); assay: as above
T19 construct: On HEK293F
T19 sequence (Q07011 18-255 G150A/T151A): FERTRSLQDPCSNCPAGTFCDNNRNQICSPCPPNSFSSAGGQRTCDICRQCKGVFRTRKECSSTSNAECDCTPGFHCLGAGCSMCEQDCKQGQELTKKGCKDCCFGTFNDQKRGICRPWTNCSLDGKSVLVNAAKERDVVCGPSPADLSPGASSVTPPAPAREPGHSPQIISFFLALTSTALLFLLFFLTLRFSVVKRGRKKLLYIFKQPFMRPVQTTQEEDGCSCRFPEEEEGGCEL

T7 sequence (Q07011 18-255): as the sequence (Q07011 18-255 G150A/T151A) above, with A133G, A134T counted along it
T17 sequence (Q07011 18-255 F125A/N126A): as the sequence (Q07011 18-255 G150A/T151A) above, with F108A, N109A, A133G, A134T counted along it
T9 sequence (Q07011 18-255 E111A/L112A): as the sequence (Q07011 18-255 G150A/T151A) above, with E94A, L95A, A133G, A134T counted along it
T8 sequence (Q07011 18-255 G109A/Q110A): as the sequence (Q07011 18-255 G150A/T151A) above, with G92A, Q93A, A133G, A134T counted along it
T10 sequence (Q07011 18-255 T137A/N138A): as the sequence (Q07011 18-255 G150A/T151A) above, with T120A, N121A, A133G, A134T counted along it
T18 sequence (Q07011 18-255 P135A/W136A): as the sequence (Q07011 18-255 G150A/T151A) above, with P118A, W119A, A133G, A134T counted along it

Binder | Kd [1] [nM] | koff [1] [s⁻¹] | kon [1] [M⁻¹ s⁻¹] | Kd [2] [nM] | Kd [3] [nM] | binding result (Hu_GQ109AA) | binding result (Hu_EL111AA) | binding result (Hu_TN137AA) | NFκB luciferase reporter, 293T cells with human CD137: EC50 (read off the curve) [4] [nM] | NFκB luciferase reporter, 293T cells with monkey CD137: EC50 (read off the curve) [5] [nM] | % in upper right quadrant (Hu_CRD3) [%] | Mean (Hu_CRD3) | % in upper right quadrant (Hu_CRD4) [%] | Mean (Hu_CRD4) | % in upper right quadrant (Hu_CRD1-CRD2) [%] | Mean (Hu_CRD1-CRD2) | % in upper right quadrant (Hu_CRD2-CRD3) [%] | Mean (Hu_CRD2-CRD3) | % in upper right quadrant (Hu_CRD1-CRD2-CRD3) [%] | Mean (Hu_CRD1-CRD2-CRD3) | other results
AG10059 (antibody, human IgG4 S228P, kappa, V domains shown) VH: EVQLVESGGGLVQPGGSLRLSCAASGYSITSGHYWAWIRQAPGKGLEWVSSISGYGSTTYYADSVKGRFTISRDNSKNTLYLQLNSLRAEDTAVYYCARGGSDAVLGDWFAYWGQGTLVTVSS VL: DIQLTQSPSSLSASVGDRVTITCRASQGIGSFLAWYQQKPGKAPKLLIYDASNLETGVPSRFSGSGSGTDFTLTISSLQPEDFATYYCQQGYYLWTFGQGTKVEIKR | 38 | 0.0063 | 160000 | 5 | 2.6 | binds | binds | binds | ~10 | ~1 | 0.25 | 6200 | 0.17 | 16100 | 0.31 | 12000 | 0.15 | 7460 | 49.4 | 15100 | % in upper right quadrant (Hu_CRD3-CRD4): 0.39%; Mean (Hu_CRD3-CRD4): 11700; % in upper right quadrant (Hu_CRD2-CRD3-CRD4): 0.25%; Mean (Hu_CRD2-CRD3-CRD4): 14900; % in upper right quadrant [6]: 34.7%; % in upper right quadrant [7]: 0.041%; Mean (Hu_FSS53AAA): 720; binding result (Hu_FSS53AAA): no binding (tested: 100 nM (as in Example 5)); binding result (Hu_FH92AA): no binding (tested: 100 nM (as in Example 5)); binding result (Hu_FN125AA): binds; Mean (Hu_PW135AA): 31600; Mean (Hu_GT150AA): 13300
AG10058 (antibody, human IgG4 S228P, kappa, V domains shown) VH: EVQLVESGGGLVQPGGSLRLSCAASGFSLSTSGVGVGWIRQAPGKGLEWLALIDWDDDKYYSPSLKSRLTISRDNSKNTLYLQLNSLRAEDTAVYYCARGGSDTVLGDWFAYWGQGTLVTVSS VL: DIQLTQSPSSLSASVGDRVTITCRASQSVSPYLAWYQQKPGKAPKLLIYDASSLESGVPSRFSGSGSGTDFTLTISSLQPEDFATYYCQQGYSLWTFGQGTKVEIKR | 5.9 | 0.0024 | 410000 | 1.8 | 2 | binds | binds | binds | ~5 | ~1 | 0.15 | 10400 | 0.15 | 16100 | 0.18 | 3680 | 0.11 | 14600 | 55.6 | 20000 | % in upper right quadrant (Hu_CRD3-CRD4): 0.19%; Mean (Hu_CRD3-CRD4): 18200; % in upper right quadrant (Hu_CRD2-CRD3-CRD4): 0.91%; Mean (Hu_CRD2-CRD3-CRD4): 7680; % in upper right quadrant [6]: 27.3%; % in upper right quadrant [7]: 31.1%; Mean (Hu_FSS53AAA): 778; binding result (Hu_FSS53AAA): no binding (tested: 100 nM (as in Example 5)); binding result (Hu_FH92AA): no binding (tested: 100 nM (as in Example 5)); binding result (Hu_FN125AA): binds; Mean (Hu_PW135AA): 24300; Mean (Hu_GT150AA): 12100
